Reference: patent publication US6632625 (MERCK, dated 2003)

Target: T1, recombinant human leptin (human, UniProt P41159 22-167, 125I label on the tracer form (125I-leptin, NEN); position not stated)
T1 construct: also called recombinant leptin; 125I-leptin
Assay: 125I-leptin binding on transfected COS cells

T1 sequence (P41159 22-167 limits assumed): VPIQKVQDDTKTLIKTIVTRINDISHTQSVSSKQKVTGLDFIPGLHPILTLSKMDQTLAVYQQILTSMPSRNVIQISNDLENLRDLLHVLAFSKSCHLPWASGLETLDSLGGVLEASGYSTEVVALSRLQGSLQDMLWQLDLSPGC

B1: substitution mutant (420-496)TO(500-632) of the human OB-R (receptor)
chain: FNLSYPITPWRFKLSCMPPNSTYDYFLLPAGLSKNTSNSNGHYETAVEPKFNSSGTHFSNLSKTTFHCCFRSEQDRNCSLCADNIEGKTFVSTVNSLVFQQIDANWNIQCWLKGDLKLFICYVESLFKNLFRNYNYKVHLLYVLPEVLEDSPLVPQKGSFQMVHCNCSVHECCECLVPVPTAKLNDTLLMCLKITSGGVIFQSPLMSVQPINMVKPDPPLGLHMEITDDGNLKISWSSPPLVPFPLQYQVKYSENSTTVIREADKIVSATSLLVDSILPGSSYEVQVRGKRLDGPGIWSDWSTPRVFTTQDVIYFPPKILTSVGSNVSFHCIYKKENKIVPSKEIVWWMNLAEKIPQSQYDVVSDHVSKVTFFNLNETKPRGKFTYDAVYCCNEHECHFQPIFLLSGYTMWIRINHSLGSLDSPPTCVLPDSVVKPLPPSSVKAEITINIGLLKISWEKPVFPENNLQFQIRYGLSGKEVQWKMYEVYDAKSKSVSLPVPDLCAVYAVQVRCKRLDGLGYWSNWSNPAYTVECIFQPIFLLSGYTMWIRINHSLGSLDSPPTCVLPDSVVKPLPPSSVKAEITINIGLLKISWEKPVFPENNLQFQIRYGLSGKEVQWKMYEVYDAKSKSVSLPVPDLCAVYAVQVRCKRLDGLGYWSNWSNPAYTVVMDIKVPMRGPEFWRIINGDTMKKEKNVTLLWKPLMKNDSLCSVQRYVINHHTSCNGTWSEDVGNHTKFTFLWTEQAHTVTVLAINSIGASVANFNLTFSWPMSKVNIVQSLSAYPLNSSCVIVSWILSPSDYKLMYFIIEWKNLNEDGEIKWLRISSSVKKYYIHDHFIPIEKYQFSLYPIFMEGVGKPKIINSFTQDDIEKHQSDAGLYVIVPVIISSSILLLGTLLISHQRMKKLFWEDVPNPKNCSWAQGLNFQKPETFEHLFIKHTASVTCGPLLLEPETISEDISVDTSWKNKDEMMPTTVVSLLSTTDLEKGSVCISDQFNSVNFSEAEGTEVTYEAESQRQPFVKYATLISNSKPSETGEEQGLINSSVTKCFSSKNSPLKDSFSNSSWEIEAQAFFILSDQHPNIISPHLTFSEGLDELLKLEGNFPEENNDKKSIYYLGVTSIKKRESGVLLTDKSRVSCPFPAPCLFTDIRVLQDSCSHFVENNINLGTSSKKTFASYMPQFQTCSTQTHKIMENKMCDLTV
  binding result: no binding (tested: 0.2 nM)
